The target in this test is T1, human NT5E-Biotin (for NT5E, GenbankID: NP_002517.1, position: 1-552) (human, UniProt P21589 27-552, biotin label, site not stated).
T1 construct: range 1-552; Positions 1-552 as printed include the signal peptide; No cleavage site is stated; also called HNT5E-Biotin; antigen human NT5E-Biotin
T1 sequence (looked up): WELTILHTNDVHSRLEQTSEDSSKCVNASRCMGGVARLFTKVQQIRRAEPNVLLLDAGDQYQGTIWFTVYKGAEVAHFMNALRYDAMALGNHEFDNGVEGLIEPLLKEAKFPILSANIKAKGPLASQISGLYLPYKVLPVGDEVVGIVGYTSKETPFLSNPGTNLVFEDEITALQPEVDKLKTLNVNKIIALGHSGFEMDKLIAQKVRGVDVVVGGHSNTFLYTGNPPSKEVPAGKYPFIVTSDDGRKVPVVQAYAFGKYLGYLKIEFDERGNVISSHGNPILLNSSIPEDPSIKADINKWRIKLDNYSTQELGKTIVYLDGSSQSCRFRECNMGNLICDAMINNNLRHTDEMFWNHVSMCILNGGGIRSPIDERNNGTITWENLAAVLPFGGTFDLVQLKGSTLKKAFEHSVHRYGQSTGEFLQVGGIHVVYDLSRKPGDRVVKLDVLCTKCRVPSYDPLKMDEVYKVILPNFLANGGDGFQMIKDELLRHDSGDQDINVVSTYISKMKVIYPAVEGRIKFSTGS
The test can be described thus: ELISA, NT5E-Biotin on streptavidin plate. A general note: An ELISA detects its analyte on a solid surface through an enzyme-linked reagent.

The text below walks through data of patent EP4790071A2 (Akeso Biopharma, Inc., dated 2026).

B1: murine anti-CD73 monoclonal antibody 19F3 (antibody, V domains shown)
VH: EVQLQQSGPELVKPGASMRMSCKASGYSFTGYTMNWVKQSHGKNLEWIGLINPYNAGTSYNQKFKGKATLTVDKSSSTAYMELLSLTSEDSAVYYCARSEYRYGGDYFDYWGQGTTLTVSS
VL: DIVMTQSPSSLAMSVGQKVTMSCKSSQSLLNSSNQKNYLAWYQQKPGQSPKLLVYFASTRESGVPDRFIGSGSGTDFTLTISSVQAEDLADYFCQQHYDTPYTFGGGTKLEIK
notes: also called murine antibody 19F3
B1 gave an EC50 of 0.018 nM.

By EC50 is commonly meant the midpoint of the concentration-response curve. Lower therefore signals higher potency in that assay.
